Data as given in patent US20190127438A1 (AFFIRIS, published 2019).

Key:
[1] = target: T1, human IgE (NBS-00911-0-100) (human, UniProt P01854-1 1-428); assay: capture ELISA: adsorber on a capturing antibody, 1 µg/ml IgE, anti IgE-HRPO
T1 construct: Bought reagent; also called soluble IgE
Method: Protease resistant A43-FceRIa adsorber has similar affinity, avidity and specificity to IgE when compared to wild type FceRIa or prior art single chain antibody scFv12 (WO 2012/140214 A1) when comparing IgE binding by capture ELISA. Plates were coated with capturing antibody, after blocking HEK cell-purified recombinant protein derived from ScFv12 and FceRIa transfected cells, coated protein was incubated for 1 hour at RT. 1 μg/ml IgE (NBS-00911-0-100), trapped for 1 h/RT and detected for IgE binding using 1 μg/ml anti IgE-HRPO mAB (Novus Biologicals NBP1-74934) for 1 hour at RT.

[2] = target: T1, human IgE (NBS-00911-0-100); assay: SPR (Biacore 2000, 25 °C), adsorber captured by anti-Tag mAB, IgE 0.5-64 nM as analyte, 1:1 model
Method: The surface of a Streptavidine (SA) sensor chip (GE Healthcare Biacore, Cat. Nr. BR-1000-32) was prepared by three injections with 20 μl of 50 mM NaOH following a 200 μl injection of the biotinylated anti-Tag-mAB (Abcam ab10241) diluted to 2 μg/ml in HBS-EP (0.01 M HEPES, 0.15 M NaCl, 3 mM EDTA, 0.005% (v/v) surfactant P20 (pH 7.4) (GE Healthcare Cat. Nr. BR-1001-88) resulting in an immobilization level of ˜2500 RU for capturing on flow cell 4. Free SA-binding sites were saturated by two consecutive 100 μl injections of 1 mM D-Biotin (Sigma #47868). Flow cell 3 was saturated with free D-Biotin and served as reference cell. The capturing level of FceRIa variants and of the ScFv12 required to obtain a maximal response of 100 RU of IgE binding was calculated to be 75 RU and 80 RU, respectively. Therefore FceRIa, A43-FceRIa and scFv12 were diluted in HBS-EP and injected into flow cell 3 and 4 (30 μl/min) until the immobilization level of 90 RU was reached. After a stabilization time of 10 min with injection of running buffer, the final capturing level of 75 and 80 RU respectively were obtained. Finally the individual interactions of FceRIa, A43-FceRIa and scFv12 with IgE (NBS-00911-0-100) diluted in HBS-EP running buffer at 2-fold increasing concentrations (starting concentration, 0.5 nM; maximum concentration, 64 nM) were assessed with an IgE-association phase of 3 min at a flow rate of 30 μl/min. The dissociation phase was investigated by injection of HBS-EP for 30 min at a flow rate of 30 μl/min. The sensor chip surface was regenerated by injecting 15 μl of 10 mM Glycine-HCl pH 1.8 at the same. The dissociation constant (KD-Value), on-rate (ka) and off-rate (kd) were calculated with BIAevaluation 4.1 (GE Healthcare Biacore) using a 1:1 interaction model. All measurements were performed on a Biacore 2000 device at 25° C.

T1 sequence (P01854 other isoform, or with tags, fused parts or gaps): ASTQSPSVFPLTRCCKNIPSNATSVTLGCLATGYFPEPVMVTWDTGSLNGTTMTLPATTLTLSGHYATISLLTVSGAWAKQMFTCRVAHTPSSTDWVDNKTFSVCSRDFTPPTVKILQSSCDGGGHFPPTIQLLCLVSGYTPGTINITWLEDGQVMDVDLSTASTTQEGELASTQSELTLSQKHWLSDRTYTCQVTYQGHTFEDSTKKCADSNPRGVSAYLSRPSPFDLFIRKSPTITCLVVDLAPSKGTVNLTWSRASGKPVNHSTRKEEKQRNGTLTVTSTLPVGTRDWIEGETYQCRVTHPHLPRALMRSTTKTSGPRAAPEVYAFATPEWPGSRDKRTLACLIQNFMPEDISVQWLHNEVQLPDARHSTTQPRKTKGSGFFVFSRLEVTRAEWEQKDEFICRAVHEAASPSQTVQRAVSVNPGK

B1: recombinant wild type FceRIa (extracellular region of the alpha chain of the human high-affinity IgE receptor, spacer, 6His) (receptor)
chain: PDGVLAVPQKPKVSLNPPWNRIFKGENVTLTCNGNNFFEVSSTKWFHNGSLSEETNSSLNIVNAKFEDSGEYKCQHQQVNESEPVYLEVFSDWLLLQASAEVVMEGQPLFLRCHGWRNWDVYKVIYYKDGEALKYWYENHNISITNATVEDSGTYYCTGKVWQLDYESEPLNITVIKAPREKYWLQHHHHHH
notes: Peptide K (VPQKPK...) begins at V26, so the secreted protein may begin at residue 26; also called WT-FceRIa; wt-FceRIa; not shown: spacer between FceRIa and 6His
[1]
  EC50: 0.0245 µg/mL
[2]
  Kd: 0.473 nM
  koff: 0.00052 s⁻¹
  kon: 1.1e+06 M⁻¹ s⁻¹

B2: protease resistant A43-FceRIa (K43 to A43 variant of recombinant human FceRIa) (receptor)
chain (part 1 of 2): PDGVLAVPQKPKVSLNPPWNRIFAGENVTLTCNGNNFFEVSSTKWFHNGSLSEETNSSLNIVNAKFEDSGEYKCQHQQVNESEPVYLEVFSDWLLLQASAEVVMEGQPLFLRCHGWRNWDVYKVIYYKDGEALKYWYENHNISITNATVEDSGTYYCTGKVWQLDYESEPLNITVIKAPREKYWLQ
chain (part 2 of 2): HHHHHH
notes: also called A43 mutant; protease-resistant variant A43-FceRIa; not shown: spacer
[1]
  EC50: 0.0344 µg/mL
[2]
  Kd: 0.379 nM
  koff: 0.000492 s⁻¹
  kon: 1.3e+06 M⁻¹ s⁻¹
